Biological target: the molecule itself
Assay: cryo-EM structure; amyloid fibrils polymerised from monomer at 4°C with seeds (5% mol/mol) in 5 mM KPi, 150 mM NaCl, pH 7.4, without agitation; third-generation (G3) fibrils

B1: Sup35NM S17R (domain or fragment, yeast, UniProt P05453 1-253, looked up)
chain: MSDSNQGNNQQNYQQYRQNGNQQQGNNRYQGYQAYNAQAQPAGGYYQNYQGYSGYQQGGYQQYNPDAGYQQQYNPQGGYQQYNPQGGYQQQFNPQGGRGNYKNFNYNNNLQGYQAGFQPQSQGMSLNDFQKQQKQAAPKPKKTLKLVSSSGIKLANATKKVGTKPAESDKKEEEKSAETKEPTKEPTKVEEPVKKEEKPVQTEEKTEEKSELPKVEDLKISESTHNTNNANVTSADALIKEQEEEVDDEVVND
notes: Sup35, yeast translation termination factor; NM domain = N-terminal prion domain (N or PrD) plus the polar M region (M124-D253), with S17R; In the fibril, many copies are stacked along the axis; also called S17R mutant; S17R4 (fibrils formed at 4°C); not shown: 7x histidine, C-terminal, kept
Question: Does B1 bind?
Answer: binds
